This is an account of results in US20190367592A1 (AC IMMUNE, published 2019).

Numbering of substitutions follows the chain as printed. Names and notes keep the numbering of the source.

The target in assay [1] is T1, recombinant human Tau monomer, 2N4R isoform (amino acids 2-441) (human, UniProt P10636-8 2-441).
T1 construct: range 2-441; N-terminal His-tag removed with TEV protease; also called monomeric Tau
As to the kind of experiment: SPR high-resolution kinetics, hIgG1.

Assay [2] addresses T1, recombinant human Tau monomer, 2N4R …. The assay can be described thus: SPR screen, hIgG captured, Tau monomer analyte.
Assay [3] has the same target. As to the kind of experiment: SPR; Normalized Rmax post-stress (2 weeks 40 C) / pre-stress. In a few lines:
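Antibodies purified by protein A tip columns were normalized to 0.1 mg/ml; pre-stress kept ~4° C., post-stress held at 40° C. for two weeks. IgG (2 μg/ml) was captured on an anti-human IgG CM5 chip, Tau monomer injected at 0, 26.5 and 265 nM, 25° C., in HBSP; KD from 1:1 fit.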

For assay [4] the target is unchanged. As to the kind of experiment: SPR, captured IgG, Tau monomer analyte, 1:1 model; fit-quality column: -. The procedure:
Briefly, IgGs in 1 mL culuture were captured using tip columns that were custom packed with 20 μL MabSelect SuRe resin (Glygen Corp & GE Healthcare). After washing with 1×PBS pH 7.4, IgGs were eluted into 160 μL of 50 mM phosphoric acid pH 3 and neutralized with 12 μL of 20×PBS pH 11. MabSelect SuRe tip columns were stripped in 0.1 M NaOH and regenerated with 1×PBS pH 7.4 for consecutive use of up to 15 times. Purified antibodies in 96-well format were normalized to 0.1 mg/ml using a Hamilton Star liquid handling robot. The “pre-stress” samples were kept at approximately 4° C. and the “post-stress” samples were incubated at 40° C. for two weeks in a PCR machine. Functional stability of the variants was compared by running surface plasmon resonance kinetics experiments with the “pre-stress” and “post-stress” antibody preps. The antibodies were assessed using a human antibody capture CM5 Series S chip generated using the GE Biacore human IgG capture kit and a Biacore T200 instrument. Antibodies diluted to 2 μg/ml were immobilized using a 15 second injection time and 10 μl/min flow rate. Binding to Tau monomer at 0 nM, 26.5 nM and 265 nM, at 25° C., using a flow rate of 40 μl/min, was monitored for a 180 second association phase followed by a 300 second dissociation phase. Samples were run in 10 mM HEPES pH7.4, 150 mM NaCl, 0.05% Tween 20 (HBSP) using a multi-cycle kinetics format. Data was analyzed using BIAevaluation software, fitting a 1:1 binding model. The resulting affinity (KD) values are shown in FIG. 8A-D. A Stability Index was also calculated, using the rationale that affinity-compromised antibodies (due for example to deamidation of key residues) are expected to contribute equally to the IgG capture level (“Ligand Level”) but to contribute less to the measured Tau binding, and that this would be reflected in the experimentally derived value for Rmax. To account for variations in the amount of each antibody captured, Rmax was normalized for the antibody capture level (as measured by “Ligand Level”, Response Units immobilized during antibody capture). Thus Normalized Rmax is calculated as the experimental Rmax (units=RU) divided by the “Ligand Level” (Evaluation output representing the RU captured during the hIgG capture step, units=RU), and Stability Index is calculated here as Normalized Rmax (post-stress) divided by Normalized Rmax (pre-stress).

For assay [5] the target is unchanged. The assay can be described thus: SPR single-cycle, human Fab capture kit, Tau monomer analyte; mean ± range, n=2. The procedure: Affinity of the humanized antibody variants was measured at 25° C. using a Biacore T200 instrument, the GE Biacore human FAb capture kit, and a CM5 Series S chip. Antibodies were diluted to 1 μg/ml in HBSP (10 mM HEPES pH7.4, 150 mM NaCl, 0.05% Tween 20) and captured at a flow rate of 10 μl/min for 180 seconds. Kinetic data were collected for human Tau monomer injected at 1.2, 3.7, 11, 33 and 100 nM in HBSP using the Single Cycle Kinetics methodology and a flow rate of 30 μl/min. Each concentration of Tau monomer was injected for a period of 3 minutes and dissociation was monitored for ten minutes. Between cycles, the surface was regenerated with two sequential one-minute injections of 10 mM glycine pH2.1. Data was fit to a 1:1 binding model using BIAEvaluation software. Each antibody was analyzed twice within the experiment; data in Table 22 are shown as mean±range.

T1 sequence (P10636 other isoform, or with tags, fused parts or gaps limits assumed): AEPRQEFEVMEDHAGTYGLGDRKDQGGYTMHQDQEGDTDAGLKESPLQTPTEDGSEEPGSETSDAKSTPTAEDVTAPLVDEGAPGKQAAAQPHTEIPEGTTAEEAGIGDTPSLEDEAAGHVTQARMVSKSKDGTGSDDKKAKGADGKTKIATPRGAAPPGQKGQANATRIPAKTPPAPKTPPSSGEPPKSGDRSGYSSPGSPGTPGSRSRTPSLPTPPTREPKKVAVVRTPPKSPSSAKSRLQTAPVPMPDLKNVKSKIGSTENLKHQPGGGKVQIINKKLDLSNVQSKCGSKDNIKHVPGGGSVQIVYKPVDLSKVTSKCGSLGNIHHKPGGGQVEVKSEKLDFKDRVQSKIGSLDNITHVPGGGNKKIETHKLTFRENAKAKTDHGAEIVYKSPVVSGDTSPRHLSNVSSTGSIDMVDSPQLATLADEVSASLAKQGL

B1: hu125B11.v17 (HC3+LC1) (antibody, IgG1, V domains shown)
VH: EVQLVESGGGLVQPGGSLRLSCAASRFIFSNYWMNWVRQAPGKGLEWVAQIRLKSDNYATHYAESVKGRFTISRDDSKNTLYLQMNSLRAEDTAVYYCTGGTTYWGQGTLVTVSS
VL: DIQMTQSPSSLSASVGDRVTITCKASQNVGTAVAWYQQKPGKSPKLLIYSASIRYTGVPSRFSGSGSGTDFTLTISSLQPEDFATYFCQQFRTYPYTFGQGTKVEIK
notes: also called hu125B11 HC3 + 125B11 LC1
On to B1, for which, in assay [1], the Kd was determined as 10.5 nM, the koff is 0.0008 s⁻¹ and the kon turned out to be 80000 M⁻¹ s⁻¹. The equilibrium dissociation constant (Kd) in assay [2] stood at 18 nM.

B2: hu125B11.v28 (HC4+LC4) (antibody, IgG1, V domains shown)
VH: B1 VH with D76N
VL: B1 VL with S43A, F87Y
notes: also called hu125B11 HC4 + 125B11 LC4
In the case of B2, in assay [1], the Kd was determined as 10.2 nM, the koff is 0.0007 s⁻¹ and the kon came out at 70000 M⁻¹ s⁻¹. Besides, the Kd in assay [2] came to 17 nM.

B3: hu125B11.v26 (HC4+LC2) (antibody, IgG1, V domains shown)
VH: B1 VH with D76N
VL: B1 VL with S43A
notes: also called hu125B11 HC4 + 125B11 LC2
Take B3: in assay [1], the Kd was determined as 9.5 nM, the koff is 0.0007 s⁻¹ and the kon came out at 70000 M⁻¹ s⁻¹. For the same molecule, in assay [2], the Kd came to 14 nM.

B4: hu37D3-H9.v31.12 (antibody, V domains shown)
VH: EVQLVESGGGLVQPGGSLRLSCAASGLIFRSYGMSWVRQAPGKGLEWVATINSGGTYTYYPDSVKGRFTISRDNSKNTLYLQMNSLRAEDTAVYYCANSYSGAMDYWGQGTLVTVSS
VL: DDVLTQTPLSLPVTPGQPASISCRSSQSIVHSNANYYFEWYLQKPGQSPQLLIYKVSNRFSGVPDRFSGSGSGTDFTLKISRVEAEDVGVYYCFQGSLVPWTFGQGTKVEIK
Take B4: the “Stability Index” value in assay [3] was 99%. Besides, in assay [4], the Kd is 41.6 nM.

B5: hu37D3.v28.A30 (antibody, V domains shown)
VH: B4 VH
VL: B4 VL with D2V, L4M, A34G, Y36T, F38L, L98H
For B5, the “Stability Index” value in assay [3] amounted to 77%. Also, in assay [4], the Kd turned out to be 34.4 nM.

B6: hu37D3.v39 hIgG4.YTE (antibody, V domains shown)
VH: B4 VH
VL: EDQLTQSPSSLSASVGDRVTITCRSSQSIVHSNGNTYLEWYQQKPGKSPKLLIYKVSNRFSGVPSRFSGSGSGTDFTLTISSLQPEDFATYYCFQGSLVPWTFGQGTKVEIKR
notes: hu37D3-H9.v1 with light chain F33L; also called hu37D3.v39 hIgG4.S228P.YTE
Regarding B6, in assay [5], the Kd was 1.9 nM, the koff was determined as 0.001 s⁻¹ and the kon is 600000 M⁻¹ s⁻¹.

B7: hu37D3-H9.v30.7 (antibody, V domains shown)
VH: B4 VH
VL: B4 VL with N33F, A34G, Y36T
As to B7, in assay [3], the “Stability Index” value is 93%. Also, the Kd in assay [4] was 34.9 nM.

B8: hu37D3.v40 hIgG4.YTE (antibody, V domains shown)
VH: B4 VH
VL: B6 VL with G34T, L38F
notes: hu37D3-H9.v1 with light chain G29T; also called hu37D3.v40 hIgG4.S228P.YTE
Regarding B8, in assay [5], the Kd is 4.4 nM, the koff is 0.003 s⁻¹ and the on-rate (kon) is 800000 M⁻¹ s⁻¹.

B9: hu37D3.v28.B3 (antibody, V domains shown)
VH: B4 VH
VL: B4 VL with N33Q, A34G, Y36T, Y37W
For B9, the “Stability Index” value in assay [3] was determined as 208%. For the same molecule, the Kd in assay [4] amounted to 0.4 nM.

B10: hu37D3-H9.v31.14 (antibody, V domains shown)
VH: B4 VH
VL: B4 VL with Y36R
In the case of B10, the “Stability Index” value in assay [3] was found to be 86%. In addition, the dissociation constant (Kd) in assay [4] was 35.5 nM.

B11: hu37D3-H9.v30.9 (antibody, V domains shown)
VH: B4 VH
VL: B4 VL with N33H, A34G, Y36T
Turning to B11, the “Stability Index” value in assay [3] stood at 63%. Further, the Kd in assay [4] was 36.4 nM.

B12: hu37D3.v41 hIgG4.YTE (antibody, V domains shown)
VH: B4 VH
VL: B6 VL with N35Q, L38F
notes: hu37D3-H9.v1 with light chain N30Q; also called hu37D3.v41 hIgG4.S228P.YTE
Consider B12, for which, in assay [5], the Kd worked out at 5.4 nM, the koff turned out to be 0.005 s⁻¹ and the kon was 900000 M⁻¹ s⁻¹.

B13: hu37D3.v28.B7 (antibody, V domains shown)
VH: B4 VH
VL: B4 VL with N33D, A34G, Y36T, Y37K
Regarding B13, the “Stability Index” value in assay [3] is 607%. The Kd in assay [4] is 4.1 nM.

B14: hu37D3.v28.E3 (antibody, V domains shown)
VH: B4 VH
VL: B4 VL with H31D, N33D, A34G, Y36T
With B14, the “Stability Index” value in assay [3] was found to be 364%. Besides, the Kd in assay [4] came out at 1.1 nM.

B15: hu37D3.v28.51 (antibody, V domains shown)
VH: B4 VH
VL: B4 VL with D1E, N33H, A34G, Y36T
As for B15, the “Stability Index” value in assay [3] stood at 74%. Further, in assay [4], the Kd turned out to be 35.6 nM.

B16: hu37D3-H9.v30.6 (antibody, V domains shown)
VH: B4 VH
VL: B4 VL with N33P, A34G, Y36T
For the molecule B16, the “Stability Index” value in assay [3] is 270%. Moreover, the Kd in assay [4] turned out to be 19.1 nM.

B17: hu37D3-H9.v30.8 (antibody, V domains shown)
VH: B4 VH
VL: B4 VL with N33Y, A34G, Y36T
For the molecule B17, in assay [3], the “Stability Index” value was 105%. For the same molecule, the Kd in assay [4] is 31.4 nM.

B18: hu37D3.v28.B4 (antibody, V domains shown)
VH: B4 VH
VL: B4 VL with N33Q, A34G, Y36T, Y37H
Turning to B18, the “Stability Index” value in assay [3] was 288%. Also, the Kd in assay [4] is 10.5 nM.

B19: hu37D3-H9.v31.13 (antibody, V domains shown)
VH: B4 VH
VL: B4 VL with Y36N
Consider B19, for which, in assay [3], the “Stability Index” value was found to be 83%. Also, the Kd in assay [4] was 48.1 nM.

B20: hu37D3.v28.B8 (antibody, V domains shown)
VH: B4 VH
VL: B4 VL with N33E, A34G, Y36T, Y37R
With B20, the “Stability Index” value in assay [3] came to 456%. For the same molecule, in assay [4], the Kd was 1.8 nM.

B21: hu37D3-H9.v1 hIgG1 (antibody)
heavy: not shown
light: EDQLTQSPSSLSASVGDRVTITCRSSQSIVHSNGNTYFEWYQQKPGKSPKLLIYKVSNRFSGVPSRFSGSGSGTDFTLTISSLQPEDFATYYCFQGSLVPWTFGQGTKVEIKRTVAAPSVFIFPPSDEQLKSGTASVVCLLNNFYPREAKVQWKVDNALQSGNSQESVTEQDSKDSTYSLSSTLTLSKADYEKHKVYACEVTHQGLSSPVTKSFNRGEC
notes: also called hu37D3.v1 hIgG1
Turning to B21, in assay [5], the Kd came out at 2.3 nM, the koff was 0.001 s⁻¹ and the kon is 600000 M⁻¹ s⁻¹.
